Measurements published in paper PMC5101189, “Structure of the MIS12 Complex and Molecular Basis of Its Interaction with CENP-C at Human Kinetochores” (Cell, 2016).

Molecular target: T1, NSL1, full length (subunit of the full-length MIS12C in the KMN assembly) (human, UniProt Q96IY1 1-281)
T1 sequence (looked up): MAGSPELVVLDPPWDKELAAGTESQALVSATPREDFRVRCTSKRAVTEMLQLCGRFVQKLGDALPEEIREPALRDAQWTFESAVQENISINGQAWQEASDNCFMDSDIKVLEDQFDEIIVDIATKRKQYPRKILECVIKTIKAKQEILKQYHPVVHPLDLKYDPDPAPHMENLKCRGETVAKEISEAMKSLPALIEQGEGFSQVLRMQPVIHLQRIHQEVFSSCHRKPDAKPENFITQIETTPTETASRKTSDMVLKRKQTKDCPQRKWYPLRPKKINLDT
Test: cross-linking; 10-subunit KMN assembly with a CENP-C fragment, 45 μg at 1 mg/ml, 650 μM BS3 (d0/d12), 30 min at 37°C; trypsin or AspN digest, tandem mass spectrometry (xQuest)
Details: both partners purified

binding result: binds
B1: ZWINT (natural protein, human, UniProt O95229 1-277, looked up)
chain: MEAAETEAEAAALEVLAEVAGILEPVGLQEEAELPAKILVEFVVDSQKKDKLLCSQLQVADFLQNILAQEDTAKGLDPLASEDTSRQKAIAAKEQWKELKATYREHVEAIKIGLTKALTQMEEAQRKRTQLREAFEQLQAKKQMAMEKRRAVQNQWQLQQEKHLQHLAEVSAEVRERKTGTQQELDRVFQKLGNLKQQAEQERDKLQRYQTFLQLLYTLQGKLLFPEAEAEAENLPDDKPQQPTRPQEQSTGDTMGRDPGVSFKAVGLQPAGDVNLP
notes: ZWINT, human, subunit of KNL1C in the cross-linked 10-subunit KMN assembly; also called Zwint1
